Values quoted from earlier work in article PMC8035261.

Assays:
SV2 = SV2 (UniProt Q9Z2I6)
FGFR3 (Homo sapiens) = FGFR3 (Homo sapiens) (UniProt P22607)
Chain of UniProt P22607 (P22607 23-806): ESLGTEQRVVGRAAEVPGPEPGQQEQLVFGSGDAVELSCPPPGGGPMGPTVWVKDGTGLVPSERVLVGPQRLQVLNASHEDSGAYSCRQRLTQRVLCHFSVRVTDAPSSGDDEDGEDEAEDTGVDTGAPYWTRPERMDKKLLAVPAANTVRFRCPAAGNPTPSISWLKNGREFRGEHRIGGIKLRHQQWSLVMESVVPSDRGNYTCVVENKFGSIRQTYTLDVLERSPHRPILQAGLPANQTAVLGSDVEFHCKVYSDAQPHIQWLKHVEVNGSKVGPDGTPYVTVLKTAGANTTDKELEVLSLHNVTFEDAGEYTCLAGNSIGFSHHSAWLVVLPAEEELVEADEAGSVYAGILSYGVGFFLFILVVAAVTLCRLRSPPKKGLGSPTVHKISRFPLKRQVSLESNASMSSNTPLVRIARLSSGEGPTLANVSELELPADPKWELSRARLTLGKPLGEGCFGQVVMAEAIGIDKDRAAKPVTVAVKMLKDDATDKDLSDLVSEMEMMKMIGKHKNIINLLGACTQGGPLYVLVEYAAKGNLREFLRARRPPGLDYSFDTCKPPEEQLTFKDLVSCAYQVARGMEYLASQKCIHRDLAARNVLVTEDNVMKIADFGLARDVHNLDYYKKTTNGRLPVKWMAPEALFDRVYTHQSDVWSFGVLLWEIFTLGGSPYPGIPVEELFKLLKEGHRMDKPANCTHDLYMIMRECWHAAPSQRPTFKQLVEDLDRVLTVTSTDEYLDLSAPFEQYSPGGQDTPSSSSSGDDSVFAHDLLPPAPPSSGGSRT

Chain of UniProt Q9Z2I6 (Q9Z2I6 whole entry): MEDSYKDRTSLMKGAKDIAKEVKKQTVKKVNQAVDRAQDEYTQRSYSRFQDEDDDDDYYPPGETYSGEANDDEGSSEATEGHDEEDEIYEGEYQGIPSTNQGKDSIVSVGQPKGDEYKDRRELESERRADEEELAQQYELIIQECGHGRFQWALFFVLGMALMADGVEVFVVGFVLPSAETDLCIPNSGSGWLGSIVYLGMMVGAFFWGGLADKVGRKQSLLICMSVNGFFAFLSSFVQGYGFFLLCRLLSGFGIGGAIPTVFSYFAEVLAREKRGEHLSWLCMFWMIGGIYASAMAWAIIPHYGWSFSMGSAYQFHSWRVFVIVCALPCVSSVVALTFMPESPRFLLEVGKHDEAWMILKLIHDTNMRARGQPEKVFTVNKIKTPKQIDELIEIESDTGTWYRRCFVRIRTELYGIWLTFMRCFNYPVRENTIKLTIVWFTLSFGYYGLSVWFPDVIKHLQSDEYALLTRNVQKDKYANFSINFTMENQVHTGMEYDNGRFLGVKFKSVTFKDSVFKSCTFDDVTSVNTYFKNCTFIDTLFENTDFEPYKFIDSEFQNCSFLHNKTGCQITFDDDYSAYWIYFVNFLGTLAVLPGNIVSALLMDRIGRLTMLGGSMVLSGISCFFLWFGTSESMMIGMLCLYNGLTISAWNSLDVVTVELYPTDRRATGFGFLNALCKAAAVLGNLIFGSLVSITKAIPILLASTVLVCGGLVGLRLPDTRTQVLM

BoNT/A (from UniProt P0DPI1)
Kd (SV2): 0.1 µM
Kd (FGFR3 (Homo sapiens)): 0.015 µM
